# According to patent US20240132591A1:
# Where two headings read alike, the source gives them in different places.
# Tests used:
# Assay in all cases: ELISA on insulin-coated plate, 100 nM
# Insulin [1] = target: Insulin (UniProt P01308)
# Insulin [2] = target: Insulin (UniProt P01308); remark: listed apart in the source
# Insulin [3] = target: Insulin (UniProt P01308); remark: listed apart in the source
# Insulin [4] = target: Insulin (UniProt P01308); remark: listed apart in the source
# Insulin [5] = target: Insulin (UniProt P01308); remark: listed apart in the source
# Insulin [6] = target: Insulin (UniProt P01308); remark: listed apart in the source
Insulin polyreactivity score (Insulin [1]),Insulin polyreactivity score (Insulin [2]),Insulin polyreactivity score (Insulin [3]),Insulin polyreactivity score (Insulin [4]),Insulin polyreactivity score (Insulin [5]),Insulin polyreactivity score (Insulin [6]),Substance
1.52,7.87,21.3,69.2,69.2,7.93,Lenzilumab (antibody)
1,1.01,1.25,3.43,–,1.09,Elotuzumab (antibody)
